Data taken from PMC314469, “Protein Interaction Networks by Proteome Peptide Scanning” (PLoS Biology, 2004).

T1: Abp1 SH3 (ABP1_YEAST), P15891
T1 chain: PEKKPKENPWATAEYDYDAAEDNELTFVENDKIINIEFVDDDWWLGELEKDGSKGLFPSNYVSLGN


Target: T1, Abp1 SH3 (ABP1_YEAST), P15891
Assay: SPOT array

| Binder | normalised SPOT signal, Boehringer light units (BLU); mean over the file's lines of this peptide |
| --- | --- |
| NSMTGIAQILPTKP [YLR082C 61-74] | 185 |
| NSNGPTPAVLPQKP [YDL053C 27-40] | 56 |
| NSQPVSYPRVSKP [YPL007C 81-93] | 220 |
| NSSATKTPFVRRP [YGR285C 16-28] | 4320 |
| NSSFFNQPPVHRP [YPR185W 391-403] | 20.4 |
| NSSQRSQLRFPEKP [YNL139C 1491-1504] | 705 |
| NSSSKKTSSHPSRP [YER047C 483-496] | 73.4 |
| NSTAAAPIAAPKKP [YGL025C 234-247] | 201 |
| NTMVEMKRKKPVRP [YDR436W 382-395] | 1120 |
| NVDDSVLRQKPDKP [YMR032W 377-390] | 116 |
| NVLFIKIPMFLRP [YGL195W 2278-2290] | 79.2 |
| NVSSSSQPASSRP [YBL081W 344-356] | 136 |
| NVTDPLAAIYPSRP [YGR237C 285-298] | 40.9 |
| NVTFRRDPNSFRP [YDR091C 569-581] | 363 |
| NVTKETKEILPVKP [YCL014W 801-814] | 43 |
| NVYKIYNHVMPLKP [YNL236W 155-168] | 0 |
| NYNSNNNAGSPIRP [YGL073W 519-532] | 58.5 |
| NYSIKYMLLEPSKP [YPL008W 555-568] | 103 |
| NYVALWAKFFPEKP [YGR024C 108-121] | 103 |
| PAGINDSPSPVKP [YGR092W 45-57] | 117 |

| Binder | normalised SPOT signal, Boehringer light units (BLU); mean over the file's lines of this peptide |
| --- | --- |
| PAKQKTPPSPAKP [YBR102C 23-35] | 557 |
| PANSTNNSNEPIRP [YMR081C 97-110] | 131 |
| PSYSDTHLHGPFKP [YER134C 18-31] | 80.2 |
| PDEVLTKMNAPQKP [YCR004C 43-56] | 81.4 |
| PDLRLTKSGKPKKP [YDR464W 659-672] | 131 |
| PDSSFDKVETPPKP [YDR085C 528-541] | 196 |
| PDYIRSIAVHPTKP [YGL137W 97-110] | 51.9 |
| PEMLHVKDHQPGKP [YDR433W 131-144] | 120 |
| PEPMKNLTNRPKRP [YNL216W 571-584] | 913 |
| PESKSPRVTTPLKP [YJR083C 40-53] | 140 |
| PETREASLDIPYKP [YFL011W 29-42] | 16.9 |
| PFEMVTEVPIPRRP [YGR156W 131-144] | 688 |
| PFHVQETMDFPYKP [YLR072W 386-399] | 53 |
| PFKTSSTPTTPERP [YHR182W 754-767] | 138 |
| PGEMLMRIFFPKKP [YBR041W 461-474] | 561 |
| PIANTQYGDIPVRP [YOL004W 624-637] | 67 |
| PIIKWFGPLEYKP [YCL044C 243-255] | 85.4 |
| PIMKFSTPSYKKP [YKL064W 123-135] | 726 |
| PITGDVETNEPTKP [YMR042W 16-29] | 28.9 |
| PITVEYPNEYPSKP [YDL064W 59-72] | 96.3 |

| Binder | normalised SPOT signal, Boehringer light units (BLU); mean over the file's lines of this peptide |
| --- | --- |
| PKIPRLVPHWEKP [YNL009W 115-127] | 520 |
| PKKPFFTPWKPRP [YNL137C 417-429] | 1330 |
| PKKRGRKPKDPSKP [YML065W 327-340] | 32.6 |
| PKMISNRRPVPRRP [YPR091C 655-668] | 5500 |
| PKPKVQIPGLNRP [YDR266C 579-591] | 38700 |
| PKQTIHVLEQPDRP [YDR158W 295-308] | 62.2 |
| PKRRAPPPVPKKP [YIR003W 384-396] | 110000 |
| PKTSIIYANLPNRP [YMR047C 1028-1041] | 97.2 |
| PKTMAKIPVSVKP [YGL035C 180-192] | 1630 |
| PLDLVKNIKLPAKP [YDL019C 243-256] | 383 |
| PLKPKMLPIPSKP [YPL243W 529-541] | 14100 |
| PLPFELRSKLPTKP [YHL029C 305-318] | 2670 |
| PLVSSNKQSNPMRP [YER064C 414-427] | 1040 |
| PLYDGNSITPPVKP [YMR016C 338-351] | 110 |
| PMVGLVDPDKLKP [YOR117W 130-142] | 234 |
| PMVNQYSPTRGRP [YJL060W 83-95] | 2140 |
| PNERIISFEFPERP [YER086W 492-505] | 64.1 |
| PNNNGITPVEKKP [YJL123C 260-272] | 0 |
